According to patent publication US20050196808A1 (published 2005):
Values belong to the molecule of their own block, whether it stands above or below them. Non-standard residues stand in square brackets, D forms with d. No end group written: not given here. pY = N[C@@H](Cc1ccc(OP(=O)(O)O)cc1)C(=O)O; pT = C[C@@H](OP(=O)(O)O)[C@H](N)C(=O)O

Columns and labels:
[1] = biological target: BRCTtide-7pS, GAAYDI-pS-…; assay: ITC, peptide injected into 15 µM GST-(BRCT)2
[2] = biological target: BRCTtide-7pT, GAAYDI-pT-…; assay: ITC, peptide injected into 15 µM GST-(BRCT)2
[3] = biological target: PoloBoxtide-optimal, MAGPMQ-S-pT-P-LNGAKK; assay: isothermal titration calorimetry (ITC), peptide injected into 15 µM PBD
[4] = biological target: PoloBoxtide with phosphoserine substituted for phosphothreonine; assay: ITC
[5] = biological target: PoloBoxtide with Asn substituted for Pro at pThr+1; assay: ITC
[6] = biological target: Plk-1 Polo-box Domain (PBD, residues 326-603) (human) (UniProt P53350); assay: isothermal titration calorimetry [table]
[7] = biological target: Plk-1 Polo-box Domain (PBD, residues 326-603) (human) (UniProt P53350); assay: isothermal titration calorimetry
[8] = biological target: T1, Plk-1 Polo-box Domain (PBD, residues 326-603) (human, UniProt P53350 326-603); assay: isothermal titration calorimetry [table]
T1 construct: also called Plk-1 PBD; Plk1 PBD
Procedure: (§1) Some peptides contained an additional tyrosine residue to facilitate concentration determination by optical absorbance. Calorimetry measurements were performed using a VP-ITC microcalorimeter (MicroCal Inc., Studio City, Calif.). […] Thirty injections were performed with a spacing of 240 s and a reference power of 25 μCal/s. Binding isotherms were plotted and analyzed using Origin Software (MicroCal Inc. Studio City, Calif.).

[9] = biological target: T1, Plk-1 Polo-box Domain (PBD, residues …); assay: isothermal titration calorimetry [ITC panels]
Procedure: as §1

[10] = biological target: T2, Cdc25C, mitotically phosphorylated (up-shifted) form, endogenous in nocodazole-arrested HeLa cells (human, UniProt P30307 1-473, limits assumed, extensively phosphorylated at the N-terminus in mitosis, including phosphothreonine at 130); assay: Ni2+ bead pull-down from nocodazole-arrested transfected HeLa cells, blot α-Cdc25
T2 construct: also called mitotically up-shifted form of Cdc25C; mitotically phosphorylated Cdc25C
T2 sequence (looked up): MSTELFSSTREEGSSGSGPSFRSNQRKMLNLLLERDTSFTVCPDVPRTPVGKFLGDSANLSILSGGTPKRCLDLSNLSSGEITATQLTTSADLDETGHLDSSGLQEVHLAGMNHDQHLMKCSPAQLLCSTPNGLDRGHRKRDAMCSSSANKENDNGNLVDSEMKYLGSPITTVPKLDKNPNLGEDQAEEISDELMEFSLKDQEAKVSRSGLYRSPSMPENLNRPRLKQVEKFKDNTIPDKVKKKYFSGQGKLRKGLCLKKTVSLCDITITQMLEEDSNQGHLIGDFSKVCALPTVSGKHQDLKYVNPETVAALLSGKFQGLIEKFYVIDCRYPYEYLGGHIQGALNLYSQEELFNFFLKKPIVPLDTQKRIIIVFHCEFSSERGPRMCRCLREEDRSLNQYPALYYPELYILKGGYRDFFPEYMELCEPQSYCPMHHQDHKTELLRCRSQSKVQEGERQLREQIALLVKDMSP

Molecule: GST-BRCA1 tandem BRCT domains (residues 1634-1863) (from UniProt P38398 1634-1863)
Kd [1]: 400 nM

Molecule: Plk-1 Polo-box Domain (PBD, residues 326-603) (from UniProt P53350 326-603)
Kd [3]: 280 nM | fold drop in affinity against PoloBoxtide-optimal [4]: 7 fold | fold increase in Kd against PoloBoxtide-optimal [5]: > 5 fold

Molecule: PoloBoxtide with Asn substituted for Pro at pThr+1 (peptide)
Kd [6]: 1500 nM

Molecule: PoloBoxtide with phosphoserine substituted for phosphothreonine (peptide)
Kd [6]: 2100 nM

Molecule: MAGPMQA[pT]PLNGAKK [PoloBoxtide with Ser at pThr-1 replaced with Ala]
binding result [8]: no binding (tested: 150 µM Plk-1 PBD)

Molecule: MAGPMQS[pY]PLNGAKK (built from the optimal peptide) [PoloBoxtide with phosphotyrosine substituted for phosphothreonine]
binding result [8]: no binding (tested: 150 µM Plk-1 PBD)

B1: PoloBoxtide-7V (peptide)
peptide: MAGPMQV[pT]PLNGAKK
notes: also called phosphopeptide whose serine at pThr-1 was mutated to valine
binding result [9]: no binding (tested: molar ratio about 2.7)

B2: His-Xpress-tagged control Plk1 PBD construct lacking the second Polo-box (residues 326-506) (other)
chain: SIAPSSLDPSNRKPLTVLNKGLENPLPERPREKEEPVVRETGEVVDCHLSDMLQQLHSVNASKPSERGLVRQEEAEDPACIPIFWVSKWVDYSDKYGLGYQLCDNSVGVLFNDSTRLILYNDGDSLQYIERDGTESYLTVSSHPNSLMKKITLLKYFRNYMSEHLLKAGANITPREGDELA
notes: not shown: His-Xpress tag
binding result [10]: no binding

Other lines, results leading:

Kd [2]: 14300 nM | Kd [1]: 280 nM
Molecule: GST-PTIP tandem BRCT domains (residues 550-757) (from UniProt Q6ZW49 862-1069)

Kd [7]: 280 nM | Kd [6]: 280 nM
Molecule: PoloBoxtide-optimal, MAGPMQ-S-pT-P-LNGAKK (peptide)

binding result [8]: no binding (tested: 150 µM Plk-1 PBD)
Molecule: MAGPMQT[pT]PLNGAKK [PoloBoxtide with Ser at pThr-1 replaced with Thr]

binding result [8]: no binding (tested: 150 µM Plk-1 PBD)
Molecule: MAGPMQG[pT]PLNGAKK [PoloBoxtide with Ser at pThr-1 replaced with Gly]

binding result [8]: no binding (tested: 150 µM Plk-1 PBD)
Molecule: MAGPMQC[pT]PLNGAKK [PoloBoxtide with Ser at pThr-1 replaced with Cys]
